Assay results from patent publication US20260224618A1 (ORICELL THERAPEUTICS, published 2026).
Changes are numbered by the printed parent chain.

B1: positive control antibody P4 (antibody, V domains shown)
VH: QVQLQQSGPGLVTPSQTLSLTCAISGDSVSSNSATWNWIRQSPSRGLEWLGRTYYRSKWYNDYAVSVKSRMSINPDTSKNQFSLQLNSVTPEDTAVYYCARGMMTYYYGMDVWGQGTTVTVSS
VL: QPVLTQSSSLSASPGASASLTCTLRSGINVGPYRIYWYQQKPGSPPQYLLNYKSDSDKQQGSGVPSRFSGSKDASANAGVLLISGLRSEDEADYYCMIWHSSAAVFGGGTQLTVLS
notes: an AHC probe was used in the ForteBio assay; also called positive antibody P4
B2: MSLN46 VHH-Fc fusion protein (Fc fusion)
chain: QVQLQESGGGLVQAGGSLRLSCEASGHTDSYYPKAWFRQAPGKEREFVASIGWGGRMTAYADSVKGRFTVSRTYAKNTVYLQMNSLKPEDTAVYYCAAGIGWAPTADSGEYDYWGQGTQVTVSS
notes: Tested as bivalent VHH-Fc expressed in EXPI293; also called MSLN-VHH; MSLN nanobody 46; not shown: Fc of the VHH-Fc fusion
B3: MSLN53 VHH-Fc fusion protein (Fc fusion)
chain: B2 chain with A14P, R19T
notes: Tested as bivalent VHH-Fc expressed in EXPI293; also called MLSN-53; MSLN-VHH; not shown: Fc of the VHH-Fc fusion
B4: MSLN52 VHH-Fc fusion protein (Fc fusion)
chain: B2 chain with R19S, E23A
notes: Tested as bivalent VHH-Fc expressed in EXPI293; also called MSLN-VHH; MSLN nanobody 52; not shown: Fc of the VHH-Fc fusion
B5: MSLN45 VHH-Fc fusion protein (Fc fusion)
chain: QVQLQESGGGLVQPGGSLRLSCAASGSIFSINAMGWYRQPPGKQRELVAATSWGGRTNYADSVEGRFTISRDNAKNTVYLQMNSLKPEDTAVYYCKLWDGSSWDIYWGQGTQVTVSS
notes: Tested as bivalent VHH-Fc expressed in EXPI293 and detected with anti-human IgG Fc; also called MSLN-VHH; MSLN nanobody 45; not shown: Fc of the VHH-Fc fusion
B6: MSLN57 VHH-Fc fusion protein (Fc fusion)
chain: B5 chain with L11M
notes: Tested as bivalent VHH-Fc expressed in EXPI293; also called MSLN-VHH; MSLN nanobody 57; not shown: Fc of the VHH-Fc fusion
B7: MSLN59 VHH-Fc fusion protein (Fc fusion)
chain: B5 chain with A23T, G26K, S27R, F29D
notes: Tested as bivalent VHH-Fc expressed in EXPI293; also called MSLN-VHH; MSLN nanobody 59; not shown: Fc of the VHH-Fc fusion
B8: MSLN47 VHH-Fc fusion protein (Fc fusion)
chain: B5 chain with P14A
notes: Tested as bivalent VHH-Fc expressed in EXPI293; also called MSLN-VHH; MSLN nanobody 47; not shown: Fc of the VHH-Fc fusion
B9: MSLN55 VHH-Fc fusion protein (Fc fusion)
chain: B5 chain with P14S, R19K, S27N, F29A
notes: Tested as bivalent VHH-Fc expressed in EXPI293; also called MSLN-VHH; MSLN nanobody 55; not shown: Fc of the VHH-Fc fusion
B10: MSLN58 VHH-Fc fusion protein (Fc fusion)
chain: B5 chain with L11T, A23E, S25V, S27D, I28S, F29V
notes: Tested as bivalent VHH-Fc expressed in EXPI293; also called MSLN-VHH; MSLN nanobody 58; not shown: Fc of the VHH-Fc fusion
B11: MSLN51 VHH-Fc fusion protein (Fc fusion)
chain: B5 chain with P14T
notes: Tested as bivalent VHH-Fc expressed in EXPI293; also called MSLN-VHH; MSLN nanobody 51; not shown: Fc of the VHH-Fc fusion
B12: MSLN48 VHH-Fc fusion protein (Fc fusion)
chain: QVQLQESGGGLVQPGGSLRLSCAASESIFSNYSASWYRQAPGKQRELVATIARTGSAFHLGSVKGRFTISRDNAKRTVYLQMNSLLPEDTAVYYCNVWDSWGQGTQVTVSS
notes: Tested as bivalent VHH-Fc expressed in EXPI293; also called MSLN-VHH; MSLN nanobody 48; not shown: Fc of the VHH-Fc fusion
B13: MSLN50 VHH-Fc fusion protein (Fc fusion)
chain: QVQLQESGGGLVQPGGSLRLSCAASGSISKIAIMGWYRQPPGNERELIAIANMTGTGVYRDTVKGRFTIRRDNAKNMVYLQMNNLKSEDTGVYYCHARQLGVGSFESWGQGTQVTVSS
notes: Tested as bivalent VHH-Fc expressed in EXPI293; also called MSLN-VHH; MSLN nanobody 50; not shown: Fc of the VHH-Fc fusion

Assays:
Human MSLN-His antigen [1] = target: T1, Human MSLN-His antigen (human, UniProt Q13421 296-580, limits assumed); assay: ELISA, plate coated with 2 ug/ml MSLN-His, antibody diluted 2.5-fold from 200 nM, anti-human IgG Fc HRP, OD450
T1 construct: also called MSLN-his protein; human MSLN protein; not shown: His tag
Method: (§1) A high-absorption 384-well plate was coated with 2 μg/ml of MSLN-His […], and left standing at 4° C. overnight. The plate was washed three times with 1×PBST, and blocked with 5% of skimmed milk at room temperature for 2 h. During the blocking, the antibody MSLN-VHH was diluted 2.5-fold starting from a concentration of 200 nM for a total of 11 gradients. At the end of blocking, the plate was washed three times with 1×PT, into which were added corresponding diluted primary antibodies at 30 μl/well and incubated with shaking at room temperature for 1 h. The plate was washed three times with 1×PBST, into which were then added secondary antibodies Anti-human IgG Fc Antibody HRP (abcam, Item No. ab99759) and incubated at room temperature for 30-60 min. The plate was washed seven times with 1×PBST, into which was then added a TMB developer, and 2M phosphoric acid was added 3-5 min later to stop the reaction. The absorbance was read at a wavelength of 450 nm.

Human MSLN-His antigen [2] = target: T1, Human MSLN-His antigen; assay: ELISA, plate coated with 2 ug/ml MSLN-His, VHH-Fc diluted 2.5-fold from 200 nM, anti-human IgG Fc HRP, OD450
Method: as §1

Human MSLN-His antigen [3] = target: T1, Human MSLN-His antigen; assay: BLI (ForteBio), AHC probe, nanobody at 100 nM, human MSLN-His 2-fold diluted from 100 nM
Method: MSLN nanobodies with flow cytometric binding activity were diluted to 100 nM and added into a 384-well plate. Human MSLN-His antigens were 2-fold diluted to 100 nM for a total of 7 gradients, and added into a 384-well plate. An AHC probe (Sartorius, Item No. 18-5060) was used, with the binding time set to 180 sec, the dissociation time to 360 sec, the baseline to 60 sec, and the regeneration cycle to three times, each for 5 sec. After then, the binding-dissociation curve was fitted using software to calculate the affinity of the antibodies.

T1 sequence (Q13421 other isoform, or with tags, fused parts or gaps limits assumed): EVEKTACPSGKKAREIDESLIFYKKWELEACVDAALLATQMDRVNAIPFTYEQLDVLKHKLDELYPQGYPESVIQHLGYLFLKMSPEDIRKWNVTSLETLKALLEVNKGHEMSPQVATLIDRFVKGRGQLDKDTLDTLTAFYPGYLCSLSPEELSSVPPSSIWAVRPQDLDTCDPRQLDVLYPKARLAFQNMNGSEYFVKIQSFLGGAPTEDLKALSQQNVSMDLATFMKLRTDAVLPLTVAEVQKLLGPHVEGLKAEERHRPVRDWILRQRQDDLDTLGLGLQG

| Binder | EC50 (read off the curve) (Human MSLN-His antigen [1]) [nM] | EC50 (read off the curve) (Human MSLN-His antigen [2]) [nM] | Kd (Human MSLN-His antigen [3]) [nM] |
| --- | --- | --- | --- |
| B1 | ~0.8 |  |  |
| B2 |  | ~1 | 2.15 |
| B3 |  | ~0.8 | 1.41 |
| B4 |  | ~1 | 2.58 |
| B5 |  | ~0.7 |  |
| B6 |  | ~0.6 |  |
| B7 |  | ~0.5 |  |
| B8 |  | ~0.8 |  |
| B9 |  | ~0.5 |  |
| B10 |  | ~0.4 |  |
| B11 |  | ~0.8 |  |
| B12 |  | ~7 |  |
| B13 |  | ~10 |  |
